Source: US20250313634A1 (WUXI BIOLOGICS SHANGHAI, published 2025)

Key:
[1] = target: T1, hPD-L1_ECD.His point mutant E39A (human, UniProt Q9NZQ7 19-238); assay: capture ELISA on coated 1.14.4; relative to silent alanine substitutions
T1 construct: extracellular domain
Experimental: (§1) After interacting with the supernatant that contains quantified PD-L1 mutant or human/mouse PD-L1_ECD.His protein (Sino Biological, China), HRP conjugated anti-His antibody (1:5000; Rockland Immunochemicals, Pottstown, PA) was added as detection antibody. Absorbance was normalized according to the average of control mutants. After setting an additional cutoff to the binding fold change (<0.55), the final determined epitope residues were identified.
(§2) The observed binding reductions most probably resulted from the instability or even collapse of hPD-L1 structure after alanine substitutions. After setting an additional cutoff to the binding fold change (<0.55), the final determined epitope residues were listed in Table 3.

[2] = target: T2, hPD-L1_ECD.His point mutant Y160A (human, UniProt Q9NZQ7 19-238); assay: as above
T2 construct: extracellular domain
T2 sequence (Q9NZQ7 19-238 Y160A): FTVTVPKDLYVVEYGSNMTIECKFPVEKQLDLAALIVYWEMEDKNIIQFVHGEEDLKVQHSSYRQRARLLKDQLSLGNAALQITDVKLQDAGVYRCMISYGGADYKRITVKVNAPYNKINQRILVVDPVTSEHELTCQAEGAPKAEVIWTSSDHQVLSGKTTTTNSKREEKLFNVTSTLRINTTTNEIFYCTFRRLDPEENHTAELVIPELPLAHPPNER
Experimental: as §1, §2

[3] = target: T3, hPD-L1_ECD.His point mutant D215A (human, UniProt Q9NZQ7 19-238); assay: as above
T3 construct: extracellular domain
T3 sequence (Q9NZQ7 19-238 D215A): as the sequence (Q9NZQ7 19-238 Y160A) above, with A142Y, D197A counted along it
Experimental: as §1, §2

[4] = target: T4, hPD-L1_ECD.His point mutant H78A (human, UniProt Q9NZQ7 19-238); assay: as above
T4 construct: extracellular domain
T4 sequence (Q9NZQ7 19-238 H78A): as the sequence (Q9NZQ7 19-238 Y160A) above, with H60A, A142Y counted along it
Experimental: as §1, §2

[5] = target: T5, hPD-L1_ECD.His point mutant R212A (human, UniProt Q9NZQ7 19-238); assay: as above
T5 construct: extracellular domain
T5 sequence (Q9NZQ7 19-238 R212A): as the sequence (Q9NZQ7 19-238 Y160A) above, with A142Y, R194A counted along it
Experimental: as §1, §2

[6] = target: T6, hPD-L1_ECD.His point mutant N236A (human, UniProt Q9NZQ7 19-238); assay: as above
T6 construct: extracellular domain
T6 sequence (Q9NZQ7 19-238 N236A): as the sequence (Q9NZQ7 19-238 Y160A) above, with A142Y, N218A counted along it
Experimental: as §1, §2

[7] = target: T7, hPD-L1_ECD.His point mutant K46A (human, UniProt Q9NZQ7 19-238); assay: as above
T7 construct: extracellular domain
T7 sequence (Q9NZQ7 19-238 K46A): as the sequence (Q9NZQ7 19-238 Y160A) above, with K28A, A142Y counted along it
Experimental: as §1, §2

[8] = target: T8, full-length human PD-L1 expressed on CHO cells (human, UniProt Q9NZQ7 19-290); assay: FACS competition on CHO cells expressing human PD-L1; competitor mouse Fc-tagged human PD-1
T8 construct: whole, on cells; also called CHO-K1 cells expressing human PD-L1; PD-L1 transfected CHO cells
T8 sequence (Q9NZQ7 19-290): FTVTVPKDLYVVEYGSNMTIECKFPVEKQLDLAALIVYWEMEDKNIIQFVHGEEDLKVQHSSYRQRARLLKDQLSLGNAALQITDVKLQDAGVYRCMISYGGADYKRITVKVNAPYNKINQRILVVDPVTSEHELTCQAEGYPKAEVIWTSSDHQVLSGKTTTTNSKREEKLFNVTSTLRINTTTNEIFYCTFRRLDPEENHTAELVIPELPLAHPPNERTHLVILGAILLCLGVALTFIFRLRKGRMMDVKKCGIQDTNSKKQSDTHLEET
Experimental: (§3) 3.1 Competition assay by FACS: to examine whether the fully human antibodies can block the binding of PD-L1 to PD-1, the CHO-K1 cells expressing human PD-L1 were incubated with various concentrations of the fully human antibodies at 4° C. for 1 hour. The unbound antibodies were washed away, and then the mouse Fc-tagged human PD-1 was added to the cells. The binding of human PD-1 to PD-L1 expressing cell was detected by using FITC-conjugated goat anti-mouse IgG, followed by the analysis using a BD Biosciences FACSCanto II and FlowJo Version software.
(§4) Then the mouse Fc-tagged human PD-1 was added to the cells. The binding of human PD-1 to PD-L1 expressing cell was detected by using FITC-conjugated goat anti-mouse IgG, followed by the FACS analysis.

[9] = target: T9, recombinant human PD-L1 (human, UniProt Q9NZQ7 19-238, limits assumed); assay: surface plasmon resonance per legend paragraph 39 and paragraph 188; column Best fit-KD, mol/L from the legend
T9 construct: Used for the SPR analyte (3.2) and for the plate-coated human PD-L1 of the cross-species ELISA (3.7); also called human PD-L1 (SPR analyte); Human PD-L1 coated on ELISA plates
T9 sequence (Q9NZQ7 19-238 limits assumed): as the sequence (Q9NZQ7 19-238 Y160A) above, with A142Y counted along it
Text: 3.2 Affinity test by surface plasmon resonance (SPR): Antibodies were characterized for affinity and binding kinetics to PD-L1 by SPR assay using ProteOn XPR36 (Bio-Rad). Protein A protein (Sigma) was immobilized to a GLM sensor chip (Bio-Rad) through amine coupling. Purified antibodies were flowed over the sensor chip and captured by the Protein A. The chip was rotated […] and washed with running buffer (1×PBS/0.01% Tween20, Bio-Rad) until the baseline is stable. Five concentrations of human PD-L1 and running buffer were flowed against the antibody flow cell at a flow rate 100 μL/min for an association phase of 240s, followed by 600s dissociation. The chip was regenerated with pH 1.7 H₃PO₄ after each run. The association and dissociation curve was fit to a 1:1 Langmiur binding model using ProteOn software.

[10] = target: T8, full-length human PD-L1 expressed on …; assay: FACS competition: blocking of mouse Fc-tagged human PD-1 binding to CHO cells expressing human PD-L1
Experimental: as §3, §4

[11] = target: T10, PD-L2 expressed on transfected CHO cells (Homo sapiens (Human), UniProt Q9BQ51 20-273); assay: FACS on PD-L2 transfected CHO-K1 cells, single bar, antibody concentration not shown
T10 construct: also called PD-L2 of PD-1 ligand family
T10 sequence: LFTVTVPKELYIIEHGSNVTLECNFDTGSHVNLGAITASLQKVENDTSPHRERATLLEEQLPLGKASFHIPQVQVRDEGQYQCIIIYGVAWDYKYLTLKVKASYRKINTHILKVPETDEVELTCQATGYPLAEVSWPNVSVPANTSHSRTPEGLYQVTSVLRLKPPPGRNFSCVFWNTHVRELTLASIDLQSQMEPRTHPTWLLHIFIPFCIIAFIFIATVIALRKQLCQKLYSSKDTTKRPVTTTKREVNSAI
Experimental: 3.8 Cross-family binding assay by FACS: to examine the cross-family binding activity of the fully human antibodies, cells lines that express PD-L2 were stained with the fully human antibodies, followed by 2nd antibody staining with FITC conjugated goat anti-human IgG Fc. PD-L1 expressing cells were used as positive control. Corresponding parental cell lines were used as negative controls. The stained cells were analyzed by using a BD Biosciences FACSCanto II and FlowJo Version software.
CHO cells transfected with PD-L1 or PD-L2 were stained with fully human PD-L1 antibodies and analysis by FACS.

[12] = target: T11, murine PD-L1 (mouse, UniProt Q9EP73 19-238, limits assumed); assay: ELISA, murine PD-L1 coated on the plate, goat anti-human IgG Fc-HRP; antibody concentration not shown
T11 construct: also called mouse PD-L1 (coated on ELISA plates)
T11 sequence (Q9EP73 19-238 limits assumed): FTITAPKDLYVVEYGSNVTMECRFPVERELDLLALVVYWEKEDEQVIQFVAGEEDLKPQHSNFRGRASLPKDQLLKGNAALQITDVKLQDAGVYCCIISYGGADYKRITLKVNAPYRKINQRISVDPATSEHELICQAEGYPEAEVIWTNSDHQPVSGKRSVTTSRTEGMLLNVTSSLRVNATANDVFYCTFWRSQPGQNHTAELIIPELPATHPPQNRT
Experimental: 3.7 Cross-species binding assay: the cross-reactivity of the Ab to cynomolgus and murine PD-L1 was measured by ELISA. Human, cyno and mouse PD-L1 were coated on ELISA plates, respectively. After blocking, fully human antibodies were added into the plate and incubated at room temperature for at least 2 hours. The binding of the antibodies to the coated antigens was detected by using goat anti-human IgG Fc-HRP. The color reaction was developed using TMB substrate and stopped by 2M HCl. The ELISA plates were analyzed at 450 nm using a Molecular Device M5e microplate reader.

T1 sequence (Q9NZQ7 19-238 E39A): as the sequence (Q9NZQ7 19-238 Y160A) above, with E21A, A142Y counted along it

B1: 1.14.4 (antibody, V domains shown)
VH: EVQLLESGGGLVQPGGSLRLSCAASGFTFSSYAMSWVRQAPGKGLEWVSGISGSGGFTYYADSVKGRFTISRDNSKNTLYLQMNSLRAEDTAVYYCAKPPRGYNYGPFDYWGQGTLVTVSS
VL: SYVLTQPPSVSVAPGQTARITCGGNNIGSKSVHWYQQKPGQAPVLVVYDDSDRPSGIPERFSGSNSGNTATLTISRVEAGDEADYYCQVWDSSSDHVVFGGGTKLTVL
notes: Fully human monoclonal antibody with a human constant region of IgG4 isotype
[1]
  fold change: 0.831 fold
[2]
  fold change: 0.505 fold
[3]
  fold change: 0.811 fold
[4]
  fold change: 0.821 fold
[5]
  fold change: 0.87 fold
[6]
  fold change: 0.848 fold
[7]
  fold change: 1.08 fold
[8]
  IC50: ~10 nM
[9]
  Kd: 0.392 nM
[10]
  IC50 (read off the curve): ~2 nM
[11]
  binding result: no binding
[12]
  binding result: no binding
